Data: patent US20160130329

Target: T1, H3K9me2 peptide
T1 chain: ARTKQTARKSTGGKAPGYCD

B1: SUV39H1 (protein)
chain: EVEYLCDYKKIREQEYYLVKWRGYPDSESTWEPRQNLKCVRILKQFHKDLERELLRRHHRSKTPRHLDPSLANYLVQKAKQRRALRRWEQELNAKRSHLGRITVENEVDLDGPPRAFVYINEYRVGEGITLNQVAVGCECQDCLWAPTGGCCPGASLHKFAYNDQGQVRLRAGLPIYECNSRCRCGYDCPNRVVQKGIRYDLCIFRTDDGRGWGVRTLEKIRKNSFVMEYVGEIITSEEAERRGQIYDRQGATYLFDLDYVEDVYTVDAAYYGNISHFVNHSCDPNLQVYNVFIDNLDERLPRIAFFATRTIRAGEELTFDYNMQVDPVDMESTRMDSNFGLAGLPGSPKKRVRIECKCGTESCRKYLF
  histone methyltransferase activity (H3K9me3 product detected by ELISA with 309M3-A): activity of the HMT SUV39H1 and its inhibition by an HMT inhibitor, chaetocin (Greiner et al., 2005), were clearly observed with 309M3-A
